Reference: paper PMC12173559

Biological target: MERS-CoV receptor binding domain (RBD), biotinylated (MERS-CoV) (UniProt K9N5Q8)
Experiment: BLI; […] (10 µg/mL) […] (SA) biosensor for 300 s; analyte in kinetic buffer (PBST, 0.1% BSA) […], association 120 s, dissociation 180 s; […]

| Substance | Kd [nM] |
| --- | --- |
| rhesus monkey DPP4 (receptor) | 47.8 |
| alpaca DPP4 (receptor) | 58.4 |
